Measurements from patent US11397178B2, “Method of predicting progression of idiopathic pulmonary fibrosis and monitoring of therapeutic efficacy” (Cedars-Sinai Medical Center, priority 2016, dated 2022).
Entries after “also recorded” stand apart in the source; their conditions may differ.

Experiments:
CCR10+ cells = test: Humanized NSG-GFP mice: KB004 / KB243 treatment (GFP IHC, flow cytometry); format: in vivo, human IPF cells in NSG-GFP mice; details: 5 mg/kg i.p. twice a week for 5 weeks, day 35
Method: NSG-GFP mice. (A) IPF cells were injected intravenously into NSG-GFP mice, and 2 hours later groups of mice received either 5 mg/kg of KB004 (an afucosylated anti-EphA3 mAb) or KB243 (an isotype control) via intraperitoneal injection. Both groups of mice were injected twice a week with the antibodies for 5 weeks after which lungs and spleen were collected for histological and/or flow cytometric analysis. (B-C) Depicted are representative images of GFP-stained NSG mouse lung (red indicates the presence of transgenic GFP mouse cells) at day 35 after IPF lung injection in both the KB243 (B) and KB004 (C) treatment groups. (D) Flow cytometric dot plots depicting GFP^− staining for human-CD45, CCR10 and/or EpCAM proteins. Representative dot plots for (from left to right) GFP^− cells expressing CD45, CD45, and CCR10 or CCR10 alone in humanized NSG-GFP mice treated either with KB243 (top) or KB004 (bottom) antibodies are shown. (E-F) The average number of GFP^− CD45^+ CCR10^+ (E) and GFP^− Lin^− CCR10^+ (F) cells in non-humanized and humanized NSG mice treated with either KB243 or KB004. Data shown are mean±sem n=4-5/group. *p≤0.05
Six to eight-week old, female, pathogen free NOD Cg-Prkdc^SCID IL2rg^Tm1wil Szi (NSG) or NOD.Cg-Prkdc^SCID IL2rg^tm1Wil Tg(CAG-EGFP) 10sb/SzJ (NSG-GFP) were purchased from Jackson Laboratories and housed in Cedars-Sinai Medical Center's high isolation animal rooms. […] All NSG groups were monitored daily and mice were sacrificed if there is evidence for morbidity such as weight loss of more than 20%, loss of fur, paralysis and/or lack of responsiveness when handled.
Murine lung cellular suspensions were generated using a mouse lung dissociation kit, C-tubes, and a GentleMacs dissociator (Miltenyi Biotech). […] Unstained, isotype controls, fluorescent minus one controls and staining in non-humanized murine lung and spleen suspensions were utilized to gate out any non-specific antibody binding and background fluorescence. […]

[1] = system: murine IL-2, IL-10, IL-12-p70, and TNFα; test: Bioplex analysis of mouse cytokines in BAL of humanized NSG mice; format: in vivo; details: days 0 to 35 or days 35 to 63
Method: (A-E) Murine IL-2 (A), IL-10 (B), IL12-p70 (C), IFNγ, and TNFα in the BAL from non-humanized and humanized NSG mice treated with KB004 or KB243 from days 0 to 35, or from days 35 to 63 after IPF cell injection. Mouse cytokines were measured using Bioplex and data shown are mean±sem; n=5-10/group. ****p≤0.0001
Lungs in non-humanized and humanized NSG mice were washed using 1 ml of saline solution, and the resulting BAL was centrifuged to remove cells and the supernatants were stored at −80° C. until analysis. Mouse cytokines in the BAL were measured using predesigned Bioplex assays (Bio-Rad) as recommended by the manufacturer, […]

EphA3 expressing cells = test: IPF explant cell challenged NOD/SCID mice treated with anti-EphA3 antibody; format: in vivo; details: listed as afucosylated anti-EphA3 antibody
Excerpt: IHC analysis indicated the presence of these cells near honeycombing cysts, in the interstitium and their expansion in IPF lung biopsies and explants relative to normal lungs.

B1: KB004: afucosylated anti-EphA3 mAb supplied by Kalobios; targets EphA3+ cells via antibody-dependent cell-mediated cytotoxicity (ADCC) (antibody, chains of the INN, looked up, V domains shown)
VH: QVQLVQSGAEVKKPGASVKVSCKASGYTFTGYWMNWVRQAPGQGLEWMGDIYPGSGNTNYDEKFQGRVTMTRDTSISTAYMELSRLRSDDTAVYYCARGGYYEDFDSWGQGTTVTVSS
VL: DIQMTQSPSFLSASVGDRVTITCRASQGIISYLAWYQQKPEKAPKRLIYAASSLQSGVPSRFSGSGSGTEFTLTISSLQPEDFATYYCGQYANYPYTFGQGTKLEIK
- GFP cells in lung by IHC, KB004 compared with KB243 (CCR10+ cells): fewer GFP cells
- number of CD45+ CCR10+ cells compared with KB243 group (CCR10+ cells; flow cytometry): significantly reduced
- number of Lin- CCR10+ cells compared with KB243 group (CCR10+ cells; flow cytometry): significantly reduced
- inflammation in the mouse lung (BAL murine cytokines) [1]: neither KB243 or KB004 treatments in humanized NSG mice evoked inflammation
- fibrotic response / lung remodeling (EphA3 expressing cells): ameliorated the fibrotic response; also recorded: ameliorated lung remodeling
